{"source": "the RNAGym collection of RNA variant scans (doi:10.7554/elife.80360)", "parents": {"B1": {"name": "Hammerhead Ribozyme (parent)", "chain": "ACCGGAUGUGCUUUCCGGUCUGAUGAGUCCGUGAGGACGAAACAG"}}, "data": [{"variants_of": "B1", "assay": "self-cleavage, relative activity (ratio to wild type); higher = more cleavage; co-transcriptional", "values": [{"variant": "U19C G27A", "self-cleavage": 0.382}, {"variant": "U19C G27C", "self-cleavage": 0.308}, {"variant": "U19C G27U", "self-cleavage": 0.311}, {"variant": "U19C G31A", "self-cleavage": 0.967}, {"variant": "U19C G31C", "self-cleavage": 0.657}, {"variant": "U19C G31U", "self-cleavage": 0.789}, {"variant": "U19C G33A", "self-cleavage": 0.579}, {"variant": "U19C G33C", "self-cleavage": 0.38}, {"variant": "U19C G33U", "self-cleavage": 0.792}, {"variant": "U19C G35A", "self-cleavage": 0.64}, {"variant": "U19C G35C", "self-cleavage": 0.492}, {"variant": "U19C G35U", "self-cleavage": 0.465}, {"variant": "U19C G36A", "self-cleavage": 0.475}, {"variant": "U19C G36C", "self-cleavage": 0.427}, {"variant": "U19C G36U", "self-cleavage": 0.443}, {"variant": "U19C G39A", "self-cleavage": 0.282}, {"variant": "U19C G39C", "self-cleavage": 0.251}, {"variant": "U19C G39U", "self-cleavage": 0.271}, {"variant": "U19C G45A", "self-cleavage": 0.384}, {"variant": "U19C G45C", "self-cleavage": 0.519}, {"variant": "U19C G45U", "self-cleavage": 0.439}, {"variant": "U19C U21A", "self-cleavage": 0.416}, {"variant": "U19C U21C", "self-cleavage": 0.251}, {"variant": "U19C U21G", "self-cleavage": 0.221}, {"variant": "U19C U24A", "self-cleavage": 0.776}, {"variant": "U19C U24C", "self-cleavage": 0.682}, {"variant": "U19C U24G", "self-cleavage": 0.552}, {"variant": "U19C U28A", "self-cleavage": 0.524}, {"variant": "U19C U28C", "self-cleavage": 0.572}, {"variant": "U19C U28G", "self-cleavage": 0.435}, {"variant": "U19C U32A", "self-cleavage": 0.551}, {"variant": "U19C U32C", "self-cleavage": 0.565}, {"variant": "U19C U32G", "self-cleavage": 0.642}, {"variant": "U19G", "self-cleavage": 0.437}, {"variant": "U19G A23C", "self-cleavage": 0.346}, {"variant": "U19G A23G", "self-cleavage": 0.3}, {"variant": "U19G A23U", "self-cleavage": 0.23}, {"variant": "U19G A26C", "self-cleavage": 0.323}, {"variant": "U19G A26G", "self-cleavage": 0.319}, {"variant": "U19G A26U", "self-cleavage": 0.332}, {"variant": "U19G A34C", "self-cleavage": 0.349}, {"variant": "U19G A34G", "self-cleavage": 0.345}, {"variant": "U19G A34U", "self-cleavage": 0.289}, {"variant": "U19G A37C", "self-cleavage": 0.331}, {"variant": "U19G A37G", "self-cleavage": 0.3}, {"variant": "U19G A37U", "self-cleavage": 0.339}, {"variant": "U19G A40C", "self-cleavage": 0.294}, {"variant": "U19G A40G", "self-cleavage": 0.384}, {"variant": "U19G A40U", "self-cleavage": 0.323}, {"variant": "U19G A41C", "self-cleavage": 0.327}, {"variant": "U19G A41G", "self-cleavage": 0.345}, {"variant": "U19G A41U", "self-cleavage": 0.342}, {"variant": "U19G A42C", "self-cleavage": 0.424}, {"variant": "U19G A42G", "self-cleavage": 0.317}, {"variant": "U19G A42U", "self-cleavage": 0.345}, {"variant": "U19G A44C", "self-cleavage": 0.361}, {"variant": "U19G A44G", "self-cleavage": 0.623}, {"variant": "U19G A44U", "self-cleavage": 0.286}, {"variant": "U19G C20A", "self-cleavage": 0.316}, {"variant": "U19G C20G", "self-cleavage": 0.307}, {"variant": "U19G C20U", "self-cleavage": 0.306}, {"variant": "U19G C29A", "self-cleavage": 0.257}, {"variant": "U19G C29G", "self-cleavage": 0.307}, {"variant": "U19G C29U", "self-cleavage": 0.316}, {"variant": "U19G C30A", "self-cleavage": 0.376}, {"variant": "U19G C30G", "self-cleavage": 0.41}, {"variant": "U19G C30U", "self-cleavage": 0.399}, {"variant": "U19G C38A", "self-cleavage": 0.324}, {"variant": "U19G C38G", "self-cleavage": 0.354}, {"variant": "U19G C38U", "self-cleavage": 0.364}, {"variant": "U19G C43A", "self-cleavage": 0.319}, {"variant": "U19G C43G", "self-cleavage": 0.321}, {"variant": "U19G C43U", "self-cleavage": 0.336}, {"variant": "U19G G22A", "self-cleavage": 0.394}, {"variant": "U19G G22C", "self-cleavage": 0.308}, {"variant": "U19G G22U", "self-cleavage": 0.304}, {"variant": "U19G G25A", "self-cleavage": 0.275}, {"variant": "U19G G25C", "self-cleavage": 0.359}, {"variant": "U19G G25U", "self-cleavage": 0.37}, {"variant": "U19G G27A", "self-cleavage": 0.301}, {"variant": "U19G G27C", "self-cleavage": 0.288}, {"variant": "U19G G27U", "self-cleavage": 0.292}, {"variant": "U19G G31A", "self-cleavage": 0.553}, {"variant": "U19G G31C", "self-cleavage": 0.431}, {"variant": "U19G G31U", "self-cleavage": 0.451}, {"variant": "U19G G33A", "self-cleavage": 0.551}, {"variant": "U19G G33C", "self-cleavage": 0.426}, {"variant": "U19G G33U", "self-cleavage": 0.411}, {"variant": "U19G G35A", "self-cleavage": 0.282}, {"variant": "U19G G35C", "self-cleavage": 0.308}, {"variant": "U19G G35U", "self-cleavage": 0.397}, {"variant": "U19G G36A", "self-cleavage": 0.38}, {"variant": "U19G G36C", "self-cleavage": 0.351}, {"variant": "U19G G36U", "self-cleavage": 0.301}, {"variant": "U19G G39A", "self-cleavage": 0.378}, {"variant": "U19G G39C", "self-cleavage": 0.297}, {"variant": "U19G G39U", "self-cleavage": 0.305}, {"variant": "U19G G45A", "self-cleavage": 0.424}, {"variant": "U19G G45C", "self-cleavage": 0.312}, {"variant": "U19G G45U", "self-cleavage": 0.389}, {"variant": "U19G U21A", "self-cleavage": 0.323}, {"variant": "U19G U21C", "self-cleavage": 0.471}, {"variant": "U19G U21G", "self-cleavage": 0.328}, {"variant": "U19G U24A", "self-cleavage": 0.472}, {"variant": "U19G U24C", "self-cleavage": 0.255}, {"variant": "U19G U24G", "self-cleavage": 0.323}, {"variant": "U19G U28A", "self-cleavage": 0.411}, {"variant": "U19G U28C", "self-cleavage": 0.352}, {"variant": "U19G U28G", "self-cleavage": 0.355}, {"variant": "U19G U32A", "self-cleavage": 0.366}, {"variant": "U19G U32C", "self-cleavage": 0.449}, {"variant": "U19G U32G", "self-cleavage": 0.371}, {"variant": "C20A", "self-cleavage": 0.541}, {"variant": "C20A A23C", "self-cleavage": 0.353}, {"variant": "C20A A23G", "self-cleavage": 0.27}, {"variant": "C20A A23U", "self-cleavage": 0.36}, {"variant": "C20A A26C", "self-cleavage": 0.397}, {"variant": "C20A A26G", "self-cleavage": 0.344}, {"variant": "C20A A26U", "self-cleavage": 0.342}, {"variant": "C20A A34C", "self-cleavage": 0.34}, {"variant": "C20A A34G", "self-cleavage": 0.341}, {"variant": "C20A A34U", "self-cleavage": 0.413}, {"variant": "C20A A37C", "self-cleavage": 0.417}, {"variant": "C20A A37G", "self-cleavage": 0.441}, {"variant": "C20A A37U", "self-cleavage": 0.353}, {"variant": "C20A A40C", "self-cleavage": 0.33}, {"variant": "C20A A40G", "self-cleavage": 0.326}, {"variant": "C20A A40U", "self-cleavage": 0.382}, {"variant": "C20A A41C", "self-cleavage": 0.388}, {"variant": "C20A A41G", "self-cleavage": 0.309}, {"variant": "C20A A41U", "self-cleavage": 0.335}, {"variant": "C20A A42C", "self-cleavage": 0.335}, {"variant": "C20A A42G", "self-cleavage": 0.341}, {"variant": "C20A A42U", "self-cleavage": 0.386}, {"variant": "C20A A44C", "self-cleavage": 0.366}, {"variant": "C20A A44G", "self-cleavage": 0.848}, {"variant": "C20A A44U", "self-cleavage": 0.323}, {"variant": "C20A C29A", "self-cleavage": 0.382}, {"variant": "C20A C29G", "self-cleavage": 0.311}, {"variant": "C20A C29U", "self-cleavage": 0.357}, {"variant": "C20A C30A", "self-cleavage": 0.286}, {"variant": "C20A C30G", "self-cleavage": 0.353}, {"variant": "C20A C30U", "self-cleavage": 0.498}, {"variant": "C20A C38A", "self-cleavage": 0.292}, {"variant": "C20A C38G", "self-cleavage": 0.429}, {"variant": "C20A C38U", "self-cleavage": 0.385}, {"variant": "C20A C43A", "self-cleavage": 0.321}, {"variant": "C20A C43G", "self-cleavage": 0.25}, {"variant": "C20A C43U", "self-cleavage": 0.342}, {"variant": "C20A G22A", "self-cleavage": 0.287}, {"variant": "C20A G22C", "self-cleavage": 0.349}, {"variant": "C20A G22U", "self-cleavage": 0.341}, {"variant": "C20A G25A", "self-cleavage": 0.309}, {"variant": "C20A G25C", "self-cleavage": 0.287}, {"variant": "C20A G25U", "self-cleavage": 0.619}, {"variant": "C20A G27A", "self-cleavage": 0.333}, {"variant": "C20A G27C", "self-cleavage": 0.369}, {"variant": "C20A G27U", "self-cleavage": 0.302}, {"variant": "C20A G31A", "self-cleavage": 0.576}, {"variant": "C20A G31C", "self-cleavage": 0.412}, {"variant": "C20A G31U", "self-cleavage": 0.475}, {"variant": "C20A G33A", "self-cleavage": 0.651}, {"variant": "C20A G33C", "self-cleavage": 0.555}, {"variant": "C20A G33U", "self-cleavage": 0.548}, {"variant": "C20A G35A", "self-cleavage": 0.446}, {"variant": "C20A G35C", "self-cleavage": 0.385}, {"variant": "C20A G35U", "self-cleavage": 0.345}]}]}
